These results are taken from patent publication US20160114000A1 (Merck Sharp & Dohme, published 2016).

For one test, the target named is T1, human GCGR (Homo sapiens, UniProt P47871).
T1 construct: expressed in transfected cells; grown under Geneticin and Hygromycin selection
Briefly: cAMP protocol, cells expressing human GCGR. The class given is cell-based. The note with it: ratio of EC50 at human GCGR to EC50 at human GLP1R.

The target in another test is human glucagon receptor (human, UniProt P47871 26-477). Briefly: cell-based or functional assay.
A further test deals with human GLP-1 receptor (human, UniProt P43220 24-463). Briefly: cell-based or functional assay.

*1 amine or outer side, *2 acyl side, *3 side chain or, on linkers, in order; H or OH if unused. Where a SMILES comes first, the peptide text is derived from it. Where no end group is shown, it is not given here. Side-chain parts run from the residue outwards. [ ]: non-standard residue; d: D form. The star is where a group is joined. γGlu = O=C(O)[C@H](CCC(=O)[*:2])N[*:1]; Palmitoyl = CCCCCCCCCCCCCCCC(=O)*; Nle = CCCC[C@H](N)C(=O)O; Aib = CC(C)(N)C(=O)O

T1 sequence (P47871 26-477): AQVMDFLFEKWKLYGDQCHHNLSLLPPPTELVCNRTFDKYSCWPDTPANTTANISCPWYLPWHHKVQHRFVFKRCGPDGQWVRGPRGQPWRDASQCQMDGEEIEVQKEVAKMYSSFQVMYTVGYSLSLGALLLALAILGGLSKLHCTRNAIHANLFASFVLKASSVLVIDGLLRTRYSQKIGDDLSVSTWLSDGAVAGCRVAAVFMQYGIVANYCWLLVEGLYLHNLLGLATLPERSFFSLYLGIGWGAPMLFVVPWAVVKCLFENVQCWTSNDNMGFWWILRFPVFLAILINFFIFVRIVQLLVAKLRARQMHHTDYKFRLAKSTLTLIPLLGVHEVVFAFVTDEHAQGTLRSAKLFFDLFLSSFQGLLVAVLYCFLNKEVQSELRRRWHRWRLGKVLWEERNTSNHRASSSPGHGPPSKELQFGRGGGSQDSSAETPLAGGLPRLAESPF
Chain of human glucagon receptor (P47871 26-477): as above
Experimental for human GCGR: The cAMP protocol was as follows.
Peptides were dissolved in 100% DMSO and serially diluted to generate 11 point titrations. The peptide solutions were then transferred into 384-well assay plates (150 nL/well). Assay ready frozen cells expressing human GLP-1R or human GCGR were suspended in growth media consisting of DMEM/F12 medium (GIBCO), 10% FBS (GIBCO), lx P/S (GIBCO), 800 μg/mL Geneticin (GIBCO), and 300 μg/mL Hygromycin (Invitrogen). Cells were then diluted in assay buffer consisting of PBS (GIBCO), 7.5% BSA (Perkin Elmer), 100 μM RO 20-1724 (Sigma), and 20% human serum (MP Biomedical). The cell suspensions (15 μL) were then added to the assay plates containing the peptide solutions (30,000 cells/well for human GCGR; 20,000 cells/well for GLP1R). The cells were incubated for 1 hour at room temperature in the dark. Production of cAMP was determined using HitHunter™ cAMPXS kits (DiscoverX). ED buffer (20 μL) was then added to each well and the plates were incubated for 1 hour at room temperature in the dark. Subsequently, EA buffer (20 μL) was added to each well, and the plates were incubated for 1-18 hours at room temperature in the dark. Luminescence was measured using an EnVision Multilabel plate reader (Perkin Elmer). EC50 values were calculated using ADA data analyzer software.

In the case of `CCCCCCCCCCCCCCCC(=O)N[C@@H](CCC(=O)N[C@@H](CCC(=O)NCCCC[C@H](NC(=O)[C@H](CC(=O)O)NC(=O)[C@H](CO)NC(=O)[C@@H](NC(=O)[C@H](Cc1ccccc1)NC(=O)[C@@H](NC(=O)CNC(=O)[C@H](CCC(N)=O)NC(=O)[C@@H](CO)NC(=O)[C@@H](N)Cc1c[nH]cn1)[C@@H](C)O)[C@@H](C)O)C(=O)N[C@@H](CO)C(=O)N[C@@H](CCCCN)C(=O)N[C@@H](Cc1ccc(O)cc1)C(=O)N[C@@H](CC(C)C)C(=O)N[C@@H](CCC(=O)O)C(=O)N[C@@H](C)C(=O)N[C@@H](CCCNC(=N)N)C(=O)N[C@@H](C)C(=O)N[C@@H](C)C(=O)N[C@@H](CCC(N)=O)C(=O)N[C@@H](CC(=O)O)C(=O)N[C@@H](Cc1ccccc1)C(=O)N[C@H](C(=O)N[C@@H](CCC(N)=O)C(=O)N[C@@H](Cc1c[nH]c2ccccc12)C(=O)N[C@@H](CC(C)C)C(=O)N[C@@H](CC(C)C)C(=O)N[C@@H](CC(=O)O)C(=O)N[C@H](C(N)=O)[C@@H](C)O)C(C)C)C(=O)O)C(=O)O` [SEQ ID NO: 13], on human GCGR, the “hGCGR/hGLP1R (hTone)” value is recorded as 0.90.

For `CCCCCCCCCCCCCCCC(=O)N[C@@H](CCC(=O)N[C@@H](CCC(=O)NCCCC[C@H](NC(=O)[C@H](CC(=O)O)NC(=O)[C@H](CO)NC(=O)[C@@H](NC(=O)[C@H](Cc1ccccc1)NC(=O)[C@@H](NC(=O)CNC(=O)[C@H](CCC(N)=O)NC(=O)[C@@H](CO)NC(=O)[C@@H](N)Cc1c[nH]cn1)[C@@H](C)O)[C@@H](C)O)C(=O)N[C@@H](CO)C(=O)N[C@@H](CC(C)C)C(=O)N[C@@H](Cc1ccc(O)cc1)C(=O)N[C@@H](CC(C)C)C(=O)N[C@@H](CC(=O)O)C(=O)N[C@@H](CCC(=O)O)C(=O)N[C@@H](CCCNC(=N)N)C(=O)N[C@@H](C)C(=O)N[C@@H](C)C(=O)N[C@@H](CCC(N)=O)C(=O)N[C@@H](CC(=O)O)C(=O)N[C@@H](Cc1ccccc1)C(=O)N[C@H](C(=O)N[C@@H](CCC(N)=O)C(=O)N[C@@H](Cc1c[nH]c2ccccc12)C(=O)N[C@@H](CC(C)C)C(=O)N[C@@H](CC(C)C)C(=O)N[C@@H](CC(=O)O)C(=O)N[C@H](C(N)=O)[C@@H](C)O)C(C)C)C(=O)O)C(=O)O` [SEQ ID NO: 16] (H-H[dS]QGTFTSDK([γGlu-γGlu-Palmitoyl])SLYLDERAAQDFVQWLLDT-NH2), the “hGCGR/hGLP1R (hTone)” value on human GCGR is 0.91.

For `CCCCCCCCCCCCCCCC(=O)N[C@@H](CCC(=O)N[C@@H](CCC(=O)NCCCC[C@H](NC(=O)[C@H](CC(=O)O)NC(=O)[C@H](CO)NC(=O)[C@@H](NC(=O)[C@H](Cc1ccccc1)NC(=O)[C@@H](NC(=O)CNC(=O)[C@H](CCC(N)=O)NC(=O)C1(NC(=O)[C@@H](N)Cc2c[nH]cn2)CCC1)[C@@H](C)O)[C@@H](C)O)C(=O)N[C@@H](CO)C(=O)N[C@@H](CCCCN)C(=O)N[C@@H](Cc1ccc(O)cc1)C(=O)N[C@@H](CC(C)C)C(=O)N[C@@H](CC(=O)O)C(=O)N[C@@H](CCC(=O)O)C(=O)N[C@@H](CCCNC(=N)N)C(=O)N[C@@H](C)C(=O)N[C@@H](C)C(=O)N[C@@H](CCC(N)=O)C(=O)N[C@@H](CC(=O)O)C(=O)N[C@@H](Cc1ccccc1)C(=O)N[C@H](C(=O)N[C@@H](CCC(N)=O)C(=O)N[C@@H](Cc1c[nH]c2ccccc12)C(=O)N[C@@H](CC(C)C)C(=O)N[C@@H](CC(C)C)C(=O)N[C@@H](CC(=O)O)C(=O)N[C@H](C(N)=O)[C@@H](C)O)C(C)C)C(=O)O)C(=O)O` [SEQ ID NO: 18], the “hGCGR/hGLP1R (hTone)” value on human GCGR is listed as 1.25.

B1: Co-agonist Peptide 1 (peptide)
peptide: H[dS]QGTFTSDK([γGlu-Palmitoyl])SKYLDARAAQDFVQWLLDT-NH2
modifications: N-terminus assumed
SMILES: CCCCCCCCCCCCCCCC(=O)N[C@@H](CCC(=O)NCCCC[C@H](NC(=O)[C@H](CC(=O)O)NC(=O)[C@H](CO)NC(=O)[C@@H](NC(=O)[C@H](Cc1ccccc1)NC(=O)[C@@H](NC(=O)CNC(=O)[C@H](CCC(N)=O)NC(=O)[C@@H](CO)NC(=O)[C@@H](N)Cc1c[nH]cn1)[C@@H](C)O)[C@@H](C)O)C(=O)N[C@@H](CO)C(=O)N[C@@H](CCCCN)C(=O)N[C@@H](Cc1ccc(O)cc1)C(=O)N[C@@H](CC(C)C)C(=O)N[C@@H](CC(=O)O)C(=O)N[C@@H](C)C(=O)N[C@@H](CCCNC(=N)N)C(=O)N[C@@H](C)C(=O)N[C@@H](C)C(=O)N[C@@H](CCC(N)=O)C(=O)N[C@@H](CC(=O)O)C(=O)N[C@@H](Cc1ccccc1)C(=O)N[C@H](C(=O)N[C@@H](CCC(N)=O)C(=O)N[C@@H](Cc1c[nH]c2ccccc12)C(=O)N[C@@H](CC(C)C)C(=O)N[C@@H](CC(C)C)C(=O)N[C@@H](CC(=O)O)C(=O)N[C@H](C(N)=O)[C@@H](C)O)C(C)C)C(=O)O
Take B1: in the test with human glucagon receptor, the “GCGR EC50 (nM) human; cAMP production (HitHunter cAMPXS), 20% human serum” value (shortened to “GCGR EC50 (nM) human … 20% human serum”) was found to be 0.042 nM and the “hGCGR/hGLP1R (hTone): ratio of cAMP EC50 at human GCGR to cAMP EC50 at human GLP1R” value (from here on “hGCGR/hGLP1R (hTone): ratio of cAMP EC50”) was found to be 0.88 ratio. The “GLPR1 EC50 (nM) human; cAMP production (HitHunter cAMPXS), 20% human serum” value (“GLPR1 EC50 (nM) human … 20% human serum” for short) in the test with human GLP-1 receptor turned out to be 0.048 nM.

B2: Co-agonist Peptide 2 (peptide)
peptide: H[dS]QGTFTSDK([γGlu-γGlu-Palmitoyl])SKYLDVRRAQDFVQWLLDT-NH2
modifications: not fully specified; printed as HsQGTFTSDK(γEγEC16)SKYLDVRRAQDFVQWLLDT-NH2
As for B2, the “hGCGR/hGLP1R (hTone): ratio of cAMP EC50” value with human glucagon receptor amounted to 0.3 ratio.

B3: Co-agonist Peptide 14 (peptide)
peptide: HXQGTXTSDKSKYLDERAAQDFVQWLLDT
modifications: D-Ser at 2; threo-β-phenylserine (tβP) at 6; Lys 10 conjugated to γEγE-C16 (palmitoyl); C-terminal amide
For B3, in the test with human glucagon receptor, the “hGCGR/hGLP1R (hTone): ratio of cAMP EC50” value was 1.02 ratio.

B4: Comparator Co-agonist Peptide 6 (peptide)
peptide: HXQGTFTSDKSKYLDERAAQDFVQWLLDT
modifications: D-Ser at 2; Lys 10 conjugated to γEγE-C16 (palmitoyl); C-terminal amide
As to B4, in the test with human glucagon receptor, the “GCGR EC50 (nM) human … 20% human serum” value worked out at 0.009 nM and the “hGCGR/hGLP1R (hTone): ratio of cAMP EC50” value worked out at 1.3 ratio. In addition, the “GLPR1 EC50 (nM) human … 20% human serum” value in the test with human GLP-1 receptor is 0.007 nM.

B5: Co-agonist Peptide 7 (peptide)
peptide: Ac-HAQGTFTSDK([γGlu-γGlu-Palmitoyl])SKYLDERAAQDFVQWLLDT-NH2
SMILES: CCCCCCCCCCCCCCCC(=O)N[C@@H](CCC(=O)N[C@@H](CCC(=O)NCCCC[C@H](NC(=O)[C@H](CC(=O)O)NC(=O)[C@H](CO)NC(=O)[C@@H](NC(=O)[C@H](Cc1ccccc1)NC(=O)[C@@H](NC(=O)CNC(=O)[C@H](CCC(N)=O)NC(=O)[C@H](C)NC(=O)[C@H](Cc1c[nH]cn1)NC(C)=O)[C@@H](C)O)[C@@H](C)O)C(=O)N[C@@H](CO)C(=O)N[C@@H](CCCCN)C(=O)N[C@@H](Cc1ccc(O)cc1)C(=O)N[C@@H](CC(C)C)C(=O)N[C@@H](CC(=O)O)C(=O)N[C@@H](CCC(=O)O)C(=O)N[C@@H](CCCNC(=N)N)C(=O)N[C@@H](C)C(=O)N[C@@H](C)C(=O)N[C@@H](CCC(N)=O)C(=O)N[C@@H](CC(=O)O)C(=O)N[C@@H](Cc1ccccc1)C(=O)N[C@H](C(=O)N[C@@H](CCC(N)=O)C(=O)N[C@@H](Cc1c[nH]c2ccccc12)C(=O)N[C@@H](CC(C)C)C(=O)N[C@@H](CC(C)C)C(=O)N[C@@H](CC(=O)O)C(=O)N[C@H](C(N)=O)[C@@H](C)O)C(C)C)C(=O)O)C(=O)O
Turning to B5, in the test with human glucagon receptor, the “hGCGR/hGLP1R (hTone): ratio of cAMP EC50” value worked out at 1 ratio.

B6: Co-agonist Peptide 4 (peptide)
peptide: H[Aib]VGTFTSDK([γGlu-γGlu-Palmitoyl])SKYLD[Aib]RAAQDFVQWL[Nle]DT-NH2
modifications: N-terminus assumed
SMILES: CCCCCCCCCCCCCCCC(=O)N[C@@H](CCC(=O)N[C@@H](CCC(=O)NCCCC[C@H](NC(=O)[C@H](CC(=O)O)NC(=O)[C@H](CO)NC(=O)[C@@H](NC(=O)[C@H](Cc1ccccc1)NC(=O)[C@@H](NC(=O)CNC(=O)[C@@H](NC(=O)C(C)(C)NC(=O)[C@@H](N)Cc1c[nH]cn1)C(C)C)[C@@H](C)O)[C@@H](C)O)C(=O)N[C@@H](CO)C(=O)N[C@@H](CCCCN)C(=O)N[C@@H](Cc1ccc(O)cc1)C(=O)N[C@@H](CC(C)C)C(=O)N[C@@H](CC(=O)O)C(=O)NC(C)(C)C(=O)N[C@@H](CCCNC(=N)N)C(=O)N[C@@H](C)C(=O)N[C@@H](C)C(=O)N[C@@H](CCC(N)=O)C(=O)N[C@@H](CC(=O)O)C(=O)N[C@@H](Cc1ccccc1)C(=O)N[C@H](C(=O)N[C@@H](CCC(N)=O)C(=O)N[C@@H](Cc1c[nH]c2ccccc12)C(=O)N[C@@H](CC(C)C)C(=O)N[C@@H](CCCC)C(=O)N[C@@H](CC(=O)O)C(=O)N[C@H](C(N)=O)[C@@H](C)O)C(C)C)C(=O)O)C(=O)O
Take B6: in the test with human glucagon receptor, the “hGCGR/hGLP1R (hTone): ratio of cAMP EC50” value was determined as 8.98 ratio.

B7: Co-agonist Peptide 5 (peptide)
peptide: H[dS]QGTFTSDK([γGlu-γGlu-Palmitoyl])SKYLDARAAQDFVQWLLDT-NH2
modifications: N-terminus assumed
SMILES: CCCCCCCCCCCCCCCC(=O)N[C@@H](CCC(=O)N[C@@H](CCC(=O)NCCCC[C@H](NC(=O)[C@H](CC(=O)O)NC(=O)[C@H](CO)NC(=O)[C@@H](NC(=O)[C@H](Cc1ccccc1)NC(=O)[C@@H](NC(=O)CNC(=O)[C@H](CCC(N)=O)NC(=O)[C@@H](CO)NC(=O)[C@@H](N)Cc1c[nH]cn1)[C@@H](C)O)[C@@H](C)O)C(=O)N[C@@H](CO)C(=O)N[C@@H](CCCCN)C(=O)N[C@@H](Cc1ccc(O)cc1)C(=O)N[C@@H](CC(C)C)C(=O)N[C@@H](CC(=O)O)C(=O)N[C@@H](C)C(=O)N[C@@H](CCCNC(=N)N)C(=O)N[C@@H](C)C(=O)N[C@@H](C)C(=O)N[C@@H](CCC(N)=O)C(=O)N[C@@H](CC(=O)O)C(=O)N[C@@H](Cc1ccccc1)C(=O)N[C@H](C(=O)N[C@@H](CCC(N)=O)C(=O)N[C@@H](Cc1c[nH]c2ccccc12)C(=O)N[C@@H](CC(C)C)C(=O)N[C@@H](CC(C)C)C(=O)N[C@@H](CC(=O)O)C(=O)N[C@H](C(N)=O)[C@@H](C)O)C(C)C)C(=O)O)C(=O)O
Regarding B7, in the test with human glucagon receptor, the “GCGR EC50 (nM) human … 20% human serum” value came out at 0.03 nM and the “hGCGR/hGLP1R (hTone): ratio of cAMP EC50” value turned out to be 0.9 ratio. In addition, the “GLPR1 EC50 (nM) human … 20% human serum” value in the test with human GLP-1 receptor amounted to 0.033 nM.
